{"source": "the nanobody polyreactivity screen of Harvey et al. (2022)", "data": [{"test": "yeast display, Sf9 membrane polyspecificity reagent, FACS + sequencing; frameworks hold sequencing errors", "outline": "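Sorting gates, low and high (top ~1%), were placed on anti-HA fluorescence to track expression and on streptavidin fluorescence to track reagent binding. A clone's polyreactivity label is taken from the gate it came out of. The reagent was 10% biotinylated, detergent-solubilized Sf9 membrane, applied for 1 hour at 4 °C to galactose-induced yeast display cells.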", "values": [{"sequence": "QVQLVESGGGLVQAGGSLRLSCAASGIILYGYAMGWSRQAPGKERELVAAITKSGGSTYYADSVKGRFTISRDNAKNTVYLQMNSLKPEDTAVYYCAAKRWGIWYYGYRPDDYWGQGTQVTVSS", "polyreactivity (PSR sort gate)": "low polyreactivity"}, {"sequence": "QVQLVESGGGLVQAGGSLRLSCAASGIISGRTGMGWYRQATGKERELVASISDSGSSTYYADSVKGRFTISRDNAKNTVYLQMNSLKPEDTAVYYCATDLLASRYGYWGQGTQVTVSS", "polyreactivity (PSR sort gate)": "low polyreactivity"}, {"sequence": "QVQLVESGGGLVQAGGSLRLSCAASGIISIFNVMGWYRQAPGKERELVASITGRGGSTFYADSVKGRFTISRDNAKNTVYLQMNRLKPEDTAVYYCATDTGYTYPVTGLYDYWGQGTQVTVSS", "polyreactivity (PSR sort gate)": "low polyreactivity"}, {"sequence": "QVQLVESGGGLVQAGGSLRLSCAASGIISYYYAMGWYRQAPGKERELVAAISSSGNTYYADSVKGRFTISRDNAKNTVYLQMNSLKPEDTAVYYCAAESYGYYAADDDNYLTWYDYWGQGTQVTVSS", "polyreactivity (PSR sort gate)": "high polyreactivity"}, {"sequence": "QVQLVESGGGLVQAGGSLRLSCAASGIIVPNAMGWYRPAPGKERELVAAMSRSGGSTNYADSVKGRFTISRDNAKNTVYLQMNSLKPEDTAVYYCATKYNADTRYDYWGQGTQVTVSS", "polyreactivity (PSR sort gate)": "low polyreactivity"}, {"sequence": "QVQLVESGGGLVQAGGSLRLSCAASGIIYAYYAMGWYRLAPGKEREWVAGISSSGITNYADSVKGRFTISRDNAKNTVYLQMNSLKPEDTAVYSCATDWYYWRHFYWVRRGVRYYYWGQGTQVTVSS", "polyreactivity (PSR sort gate)": "high polyreactivity"}, {"sequence": "QVQLVESGGGLVQAGGSLRLSCAASGIKLYYYAMGWYRQAPGKETEFVAAIAGSGGSTRYADSVKGRFTISRDNAKKTVYLQMNSLKPEDTAVYYFAARSRYGYITFDYWGQGTQVTVSS", "polyreactivity (PSR sort gate)": "high polyreactivity"}, {"sequence": "QVQLVESGGGLVQAGGSLRLSCAASGILFGGYVMGWDRQAPGKERELVAAISRGGGITYYADSVKGRFTISRDNAKNTVYLQMNSLKPEDPAVYYCNAGVYAGQTGYDYWGQGTQVTVSS", "polyreactivity (PSR sort gate)": "high polyreactivity"}, {"sequence": "QVQLVESGGGLVQAGGSLRLSCAASGILFRFYAMGWYRQAPGKERELVAAISSGGSTYYADSVKGRFTISRDNAKNTVYLQMNSLKPEDTAVYYCNAGRKSTLVGYVRFYYWGQGTQVTVSS", "polyreactivity (PSR sort gate)": "high polyreactivity"}, {"sequence": "QVQLVESGGGLVQAGGSLRLSCAASGILRANAIGWYRQAPGKERELVATINGDGATYADSVKGRFTISRDNAKNTVYLQLNSLKPEDTAVYYCAAGGGWVVKYDYWGQGTQVTVSS", "polyreactivity (PSR sort gate)": "low polyreactivity"}, {"sequence": "QVQLVESGGGLVQAGGSLRLSCAASGINFDDYAMGWYRQAPGTERELVAAITWNGGRTYYADSVKGRFTISRDNAKNTVYLKMNSLKPEDTEVYYCAARITNPAKYNYWGQGTQVTVSS", "polyreactivity (PSR sort gate)": "high polyreactivity"}, {"sequence": "QVQLVESGGGLVQAGGSLRLSCAASGINFRSYAMGWYRQAPGKERELVAAISSTGRTYYADSVKGRFTISRDNAKNTVYLQMISLKPEDTAVYYCNSKRYIWGQGTQVTVSS", "polyreactivity (PSR sort gate)": "high polyreactivity"}, {"sequence": "QVQLVESGGGLVQAGGSLRLSCAASGINFTVYAMGWYRQAPGKVRELVATISRRGGNTFYADSVKGRVTISRDNAKKTVYLKMNSLTPEDTAVYYCAARRYVDYRWDYGYWGQGTQVTVSS", "polyreactivity (PSR sort gate)": "high polyreactivity"}, {"sequence": "QVQLVESGGGLVQAGGSLRLSCAASGINFYSYAMGWYRQAPAKERELVAAITLTVGTTYYADSVKGRFTISRDIEKNTVSLKMNSVKREDTACYYCAAQYWWWSRFEYESWGQGTQVTVSS", "polyreactivity (PSR sort gate)": "low polyreactivity"}, {"sequence": "QVQLVESGGGLVQAGGSLRLSCAASGINIKYNTMGWYRQAPGKERELVAAISSSGGTKYYADSVKGRFTISRDNAKNTVYLQMNSLKPEDTAVYYCAAGANAQRVPNGDYWGQGTQVTVSS", "polyreactivity (PSR sort gate)": "low polyreactivity"}, {"sequence": "QVQLVESGGGLVQAGGSLRLSCAASGINYSRYAMGWYRQAPGKERELVAAISSGGSTNYADSVKGRFTISRDNAKNTVYLQMNSLKPEDTAVYYCAAETRLHRQDYDYWGQGTQVTVSS", "polyreactivity (PSR sort gate)": "low polyreactivity"}, {"sequence": "QVQLVESGGGLVQAGGSLRLSCAASGISDWYAMGWSRQAPGKERELVASITDGGSTKYADSVKGRFTISRDNAKNTVYLQMNSLKPEDTAVYYCNNTFRVYFSRSWWSRYYYWGQGTQVTVSS", "polyreactivity (PSR sort gate)": "low polyreactivity"}, {"sequence": "QVQLVESGGGLVQAGGSLRLSCAASGISDWYAMGWYRQAPGKERELVASITDGGSTKYADSVKGRFTISRDNAKNTVYLQMNSLKPEDTAVYYCNTTFRVYFSRSWWSRYYYWGLGTQVTVSS", "polyreactivity (PSR sort gate)": "low polyreactivity"}, {"sequence": "QVQLVESGGGLVQAGGSLRLSCAASGISFSYYAMGWYRQAPGKERELVAAITSSGGSTYYADSVKGRFTISRDNEKNTVYLQMTSLKPEDTAVYYCNAKRAPWGTLYNYWGLGTQVTVSS", "polyreactivity (PSR sort gate)": "high polyreactivity"}, {"sequence": "QVQLVESGGGLVQAGGSLRLSCAASGISFYRYAMGWYRQAPGKERELVAAITGSGDSTYYADSVKGRFSISRDNAKNTVYLQMNSLKPEDTAVYYCNTDYGRRYDYWGQGTQVTVSS", "polyreactivity (PSR sort gate)": "high polyreactivity"}, {"sequence": "QVQLVESGGGLVQAGGSLRLSCAASGITFAEYAMGWYRQAPGKERELVAAINGGGGSTYYADSVKGRFTISRDNAKNTVYLQMNSLKPEDTAVYYCAARYRGWSGGYDYWGQGTQVTVSS", "polyreactivity (PSR sort gate)": "high polyreactivity"}, {"sequence": "QVQLVESGGGLVQAGGSLRLSCAASGITFAFYAMGWYRQAPGKERELVAAISWSGTRTYYADSVKGRFTISRDNAKNTVYLQMNSLKPEDTAVYYCAADFQAGDKLYDYWGQGTQVTVSS", "polyreactivity (PSR sort gate)": "low polyreactivity"}, {"sequence": "QVQLVESGGGLVQAGGSLRLSCAASGITFAFYAMGWYRQAPGKERELVAAISWSGTRTYYADSVKGRFTISRDNAKNTVYLQMNSLKPEDTAVYYCAADYQAGYKMFDYWGQGTQVTVSS", "polyreactivity (PSR sort gate)": "low polyreactivity"}, {"sequence": "QVQLVESGGGLVQAGGSLRLSCAASGITFAPYAMGWYRQAPGKERELVATITWSGGSTYYADSVKGRFTISRDNAKNTVYLQMNSLKPEDTAVYYCAAYNDTVPSAAHIYESWGQGTQVTVSS", "polyreactivity (PSR sort gate)": "low polyreactivity"}, {"sequence": "QVQLVESGGGLVQAGGSLRLSCAASGITFARYAMGWYRQAPGKARELVAAISRSGGSTYYADSVKGRFTSSRDNAKNTVYLQMNSLKPEDSAVYYCAAGGRVRRNKFDDWGQGTQVTVAS", "polyreactivity (PSR sort gate)": "high polyreactivity"}, {"sequence": "QVQLVESGGGLVQAGGSLRLSCAASGITFARYAMGWYRQAPGKETELVAALSKRGGRTYYADSVKGRFTISRDNAKNTVYLQMNSLKPEDTAVYYCATDYYVSTDYNYWGQGTQVTVSS", "polyreactivity (PSR sort gate)": "high polyreactivity"}, {"sequence": "QVQLVESGGGLVQAGGSLRLSCAASGITFAWYAMGWYRQAPGKERELVAAISRSGGSTYYADSVKGRFTISRDNAKNTVYLQMNSLKPEDTAVYYCADRASPRFNYWGQGTQVTVSS", "polyreactivity (PSR sort gate)": "high polyreactivity"}, {"sequence": "QVQLVESGGGLVQAGGSLRLSCAASGITFAYYVKGWYRQAPGKERQLVAAITRSGDITSYADSVKGRFTISRDNAKNTVYLQMNSLKPEDTAVYYCNARRGYQSRRYNYWGQGTQVTVSS", "polyreactivity (PSR sort gate)": "high polyreactivity"}, {"sequence": "QVQLVESGGGLVQAGGSLRLSCAASGITFDENTMGWYRQGPGKERELVAAITEIGGSTYYADSVKGRFTISRDNAKNTVYLQMHSLKPEDTAVYYCNAARWVGRFVDYEYWGQGTQVTVSS", "polyreactivity (PSR sort gate)": "low polyreactivity"}, {"sequence": "QVQLVESGGGLVQAGGSLRLSCAASGITFDGYAMGWDRQAPGKERELVAVISWSAGSTYADSVKGRFTISRDNAKNTVYLQMNSLKPEDTAVYYGNARTTYRSSRYRRYEYWGQGTQVTVSS", "polyreactivity (PSR sort gate)": "high polyreactivity"}, {"sequence": "QVQLVESGGGLVQAGGSLRLSCAASGITFDGYAMGWYRQAPGKERELVAAIRSSGGSTYYADSVKGRFTISRDNAKNTVYLQMNSLKPEDTAVYYCATDKVTVWGWKYDSWGQGTQVTVSS", "polyreactivity (PSR sort gate)": "low polyreactivity"}, {"sequence": "QVQLVESGGGLVQAGGSLRLSCAASGITFDGYGMGWYRQAPGKERQLVAAITYSGGRTYYADSVKGRFTISRDIEKNTVYLQMNSLKPEDTAVYYCAVVSRRLYEYDYWGQGTQVTVSS", "polyreactivity (PSR sort gate)": "high polyreactivity"}, {"sequence": "QVQLVESGGGLVQAGGSLRLSCAASGITFDHYAMGWYRQAPGKEREFVAAIDDIGGDTYYADSVKGRFTISRDNAKNTVYLQMNSLKPEETAVYYCATDYPWIFGHFLMDYWGQGTQVTVSS", "polyreactivity (PSR sort gate)": "low polyreactivity"}, {"sequence": "QVQLVESGGGLVQAGGSLRLSCAASGITFDLYAMGWYRQAPGKEREFVATISWTGGTTYYADSVKGRFTISRDNAKNTVYLQMNSLKPEDTAVYYCNKGSDFFWYDYDYWGQGTQVTVSS", "polyreactivity (PSR sort gate)": "low polyreactivity"}, {"sequence": "QVQLVESGGGLVQAGGSLRLSCAASGITFDLYDMGSYRQAPGKERELVAAITDADSTYYADSVKGRFTISRDNAKNTVLLQMNSLKPEDTAVYYCAATSYSHTKIRYDYWVQGTQVTVSS", "polyreactivity (PSR sort gate)": "low polyreactivity"}, {"sequence": "QVQLVESGGGLVQAGGSLRLSCAASGITFDQYVMGWYRQAPGKERELVAAIDRSDGITYYADSVKGRFTISRDNAKNSVYLQMNSLTPEDTAVYYCAAVTYTPVYGGYYWDGGYWGQGTQVTVSS", "polyreactivity (PSR sort gate)": "low polyreactivity"}, {"sequence": "QVQLVESGGGLVQAGGSLRLSCAASGITFDTYAMGWYRQAPGKERELVAAISSSGSTNYADSVKGRFTISRDNAKNTVYLQMNSLKPEDTAVYYCATDYWPGTGGNYDYWGQGTQVTVSS", "polyreactivity (PSR sort gate)": "low polyreactivity"}, {"sequence": "QVQLVESGGGLVQAGGSLRLSCAASGITFDVNAMGWYRPAPGKERELVAAITAGGNTYYADSVKGRFTISRDNAKNTVYLQMNSLKPEDTAVYYCAAVSTSLYWAGYDYWGQGTQVTVSS", "polyreactivity (PSR sort gate)": "low polyreactivity"}, {"sequence": "QVQLVESGGGLVQAGGSLRLSCAASGITFDWYTLGWYSQAPGKERELVAAISRNGGSTYYADSVKGRFTISRDNAKNTVYLQMNSLKPEDTAVYYCAAPLTYLYYGYDYWGQGTQVTVSS", "polyreactivity (PSR sort gate)": "high polyreactivity"}, {"sequence": "QVQLVESGGGLVQAGGSLRLSCAASGITFDYYAMGWYRQAPGKERELVADISSSGGSTYYADSVKGRFTISRDNAKNSVYLQMNSLKPEDTAVYYCAAVVTKYPTTGFGYWGQGTQVTVSS", "polyreactivity (PSR sort gate)": "high polyreactivity"}, {"sequence": "QVQLVESGGGLVQAGGSLRLSCAASGITFDYYAMGWYRQAPGKERELVASISSDSSTYYADSVKGRFTISRDNAKNTVYLQMNSLKPEDTAVYYCNAGDTTFPFYYWGQGTQVTVSS", "polyreactivity (PSR sort gate)": "low polyreactivity"}, {"sequence": "QVQLVESGGGLVQAGGSLRLSCAASGITFEDYAMGWYRQAPGKERELVAAISWSGDITYYADSVKGRFTISRDNAKNTVYLQMNSLKPEDTAVYYCAADLSPYGYDYWGQGTQVTVSS", "polyreactivity (PSR sort gate)": "low polyreactivity"}, {"sequence": "QVQLVESGGGLVQAGGSLRLSCAASGITFELNTMGWYRQAPGKEMELVAVITQNGGSTYYADSVKGRFTISRDNAKNTVYLQMNSLKPEDTAVYYCAATYVWSYLYLIRFYYWGQGTQVTVSS", "polyreactivity (PSR sort gate)": "high polyreactivity"}]}]}
